# Assay results from the supplement of paper PMC12458215.
# ± gives the uncertainty stated by the source.
# Tested on: HEK293T
# Assay: plasma membrane surface immunostaining intensity (anti-HA, deep receptor scanning) (arbitrary fluorescence units); higher = higher plasma membrane expression
Sequence,plasma membrane surface immunostaining intensity (GPCR class: A (Olfactory)),plasma membrane surface immunostaining intensity (GPCR class: A)
MGDNITSIREFLLLGFPVGPRIQMLLFGLFSLFYVFTLLGNGTILGLISLDSRLHAPMYFFLSHLAVVDIAYACNTVPRMLVNLLHPAKPISFAGRMMQTFLFSTFAVTECLLLVVMSYDLYVAICHPLRYLAIMTWRVCITLAVTSWTTGVLLSLIHLVLLLPLPFCRPQKIYHFFCEILAVLKLACADTHINENMVLAGAISGLVGPLSTIVVSYMCILCAILQIQSREVQRKAFRTCFSHLCVIGLVYGTAIIMYVGPRYGNPKEQKKYLLLFHSLFNPMLNPLICSLRNSEVKNTLKRVLGVERAL [OR2A4],123 ± 3.7,–
MTPLCLNCSVLPGDLYPGGARNPMACNGSAARGHFDPEDLNLTDEALRLKYLGPQQTELFMPICATYLLIFVVGAVGNGLTCLVILRHKAMRTPTNYYLFSLAVSDLLVLLVGLPLELYEMWHNYPFLLGVGGCYFRTLLFEMVCLASVLNVTALSVERYVAVVHPLQARSMVTRAHVRRVLGAVWGLAMLCSLPNTSLHGIRQLHVPCRGPVPDSAVCMLVRPRALYNMVVQTTALLFFCLPMAIMSVLYLLIGLRLRRERLLLMQEAKGRGSAAARSRYTCRLQQHDRGRRQVTKMLFVLVVVFGICWAPFHADRVMWSVVSQWTDGLHLAFQHVHVISGIFFYLGSAANPVLYSLMSSRFRETFQEALCLGACCHRLRPRHSSHSLSRMTTGSTLCDVGSLGSWVHPLAGNDGPEAQQETDPS [NMUR1],–,2770 ± 700
MASTSNVTELIFTGLFQDPAVQSVCFVVFLPVYLATVVGNGLIVLTVSISKSLDSPMYFFLSCLSLVEISYSSTIAPKFIIDLLAKIKTISLEGCLTQIFFFHFFGVAEILLIVVMAYDCYVAICKPLHYMNIISRQLCHLLVAGSWLGGFCHSIIQILVIIQLPFCGPNVIDHYFCDLQPLFKLACTDTFMEGVIVLANSGLFSVFSFLILVSSYIVILVNLRNHSAEGRHKALSTCASHITVVILFFGPAIFLYMRPSSTFTEDKLVAVFYTVITPMLNPIIYTLRNAEVKIAIRRLWSKKENPGRE [OR4B1],131 ± 38,–
MESNQTWITEVILLGFQVDPALELFLFGFFLLFYSLTLMGNGIILGLIYLDSRLHTPMYVFLSHLAIVDMSYASSTVPKMLANLVMHKKVISFAPCILQTFLYLAFAITECLILVMMCYDRYVAICHPLQYTLIMNWRVCTVLASTCWIFSFLLALVHITLILRLPFCGPQKINHFFCQIMSVFKLACADTRLNQVVLFAGSAFILVGPLCLVLVSYLHILVAILRIQSGEGRRKAFSTCSSHLCVVGLFFGSAIVMYMAPKSSHSQERRKILSLFYSLFNPILNPLIYSLRNAEVKGALKRVLWKQRSM [OR2A12],126 ± 28,–
MEEENATLLTEFVLTGFLYQPQWKIPLFLAFLVIYLITIMGNLGLIAVIWKDPHLHIPMYLLLGNLAFVDAWISSTVTPKMLNNFLAKSKMISLSECKIQFFSFAISVTTECFLLATMAYDRYVAICKPLLYPAIMTNGLCIRLLILSYVGGILHALIHEGFLFRLTFCNSNIVHHIYCDTIPLSKISCTDSSINFLMVFIFSGSIQVFSIVTILVSYTFVLFAILKKKSDKGVRKAFSTCGAHLFSVSLYYGPLLFIYVGPASPQADDQDMVEPLFYTVIIPLLNPIIYSLRNKQVTVSFTKMLKKHVKVSY [OR5H1],124 ± 20,–
MEDLEETLFEEFENYSYDLDYYSLESDLEEKVQLGVVHWVSLVLYCLAFVLGIPGNAIVIWFTGFKWKKTVTTLWFLNLAIADFIFLLFLPLYISYVAMNFHWPFGIWLCKANSFTAQLNMFASVFFLTVISLDHYIHLIHPVLSHRHRTLKNSLIVIIFIWLLASLIGGPALYFRDTVEFNNHTLCYNNFQKHDPDLTLIRHHVLTWVKFIIGYLFPLLTMSICYLCLIFKVKKRSILISSRHFWTILVVVVAFVVCWTPYHLFSIWELTIHHNSYSHHVMQAGIPLSTGLAFLNSCLNPILYVLISKKFQARFRSSVAEILKYTLWEVSCSGTVSEQLRNSETKNLCLLETAQ [CMKLR2],–,510 ± 52
MDLPPQLSFGLYVAAFALGFPLNVLAIRGATAHARLRLTPSLVYALNLGCSDLLLTVSLPLKAVEALASGAWPLPASLCPVFAVAHFFPLYAGGGFLAALSAGRYLGAAFPLGYQAFRRPCYSWGVCAAIWALVLCHLGLVFGLEAPGGWLDHSNTSLGINTPVNGSPVCLEAWDPASAGPARFSLSLLLFFLPLAITAFCYVGCLRALARSGLTHRRKLRAAWVAGGALLTLLLCVGPYNASNVASFLYPNLGGSWRKLGLITGAWSVVLNPLVTGYLGRGPGLKTVCAARTQGGKSQK [FFAR1],–,265 ± 37
MEEENATLLTEFVLTGFLYQPQWKIPLFLAFLVIYLITIMGNLGLIAVIWKDPHLHIPMYLLLGNLAFVDALLSSSVTLKMLINFLAKSKMISLSECKIQLFSFAISVTTECFLLATMAYDRYVAICKPLLYPAIMTNGLCIRLLILSYVGGLLHALIHEGFLFRLTFCNSNIIQHFYCDIIPLLKISYTDSSINFLMVFIFAGSIQVFTIGTVLISYIFVLYTILKKKSVKGMRKAFSTCGAHLLSVSLYYGPLAFMYMGSASPQADDQDMMESLFYTVIVPLLNPMIYSLRNKQVIASFTKMFKRNDV [OR5H14],116 ± 19,–
MASPALAAALAVAAAAGPNASGAGERGSGGVANASGASWGPPRGQYSAGAVAGLAAVVGFLIVFTVVGNVLVVIAVLTSRALRAPQNLFLVSLASADILVATLVMPFSLANELMAYWYFGQVWCGVYLALDVLFCTSSIVHLCAISLDRYWSVTQAVEYNLKRTPRRVKATIVAVWLISAVISFPPLVSLYRQPDGAAYPQCGLNDETWYILSSCIGSFFAPCLIMGLVYARIYRVAKLRTRTLSEKRAPVGPDGASPTTENGLGAAAGAGENGHCAPPPADVEPDESSAAAERRRRRGALRRGGRRRAGAEGGAGGADGQGAGPGAAESGALTASRSPGPGGRLSRASSRSVEFFLSRRRRARSSVCRRKVAQAREKRFTFVLAVVMGVFVLCWFPFFFSYSLYGICREACQVPGPLFKFFFWIGYCNSSLNPVIYTVFNQDFRRSFKHILFRRRRRGFRQ [ADRA2C],–,1030 ± 270
MDVVDSLLVNGSNITPPCELGLENETLFCLDQPRPSKEWQPAVQILLYSLIFLLSVLGNTLVITVLIRNKRMRTVTNIFLLSLAVSDLMLCLFCMPFNLIPNLLKDFIFGSAVCKTTTYFMGTSVSVSTFNLVAISLERYGAICKPLQSRVWQTKSHALKVIAATWCLSFTIMTPYPIYSNLVPFTKNNNQTANMCRFLLPNDVMQQSWHTFLLLILFLIPGIVMMVAYGLISLELYQGIKFEASQKKSAKERKPSTTSSGKYEDSDGCYLQKTRPPRKLELRQLSTGSSSRANRIRSNSSAANLMAKKRVIRMLIVIVVLFFLCWMPIFSANAWRAYDTASAERRLSGTPISFILLLSYTSSCVNPIIYCFMNKRFRLGFMATFPCCPNPGPPGARGEVGEEEEGGTTGASLSRFSYSHMSASVPPQ [CCKAR],–,6447 ± 43
MESSFSFGVILAVLASLIIATNTLVAVAVLLLIHKNDGVSLCFTLNLAVADTLIGVAISGLLTDQLSSPSRPTQKTLCSLRMAFVTSSAAASVLTVMLITFDRYLAIKQPFRYLKIMSGFVAGACIAGLWLVSYLIGFLPLGIPMFQQTAYKGQCSFFAVFHPHFVLTLSCVGFFPAMLLFVFFYCDMLKIASMHSQQIRKMEHAGAMAGGYRSPRTPSDFKALRTVSVLIGSFALSWTPFLITGIVQVACQECHLYLVLERYLWLLGVGNSLLNPLIYAYWQKEVRLQLYHMALGVKKVLTSFLLFLSARNCGPERPRESSCHIVTISSSEFDG [GPR119],–,702 ± 99
MEDFNMESDSFEDFWKGEDLSNYSYSSTLPPFLLDAAPCEPESLEINKYFVVIIYALVFLLSLLGNSLVMLVILYSRVGRSVTDVYLLNLALADLLFALTLPIWAASKVNGWIFGTFLCKVVSLLKEVNFYSGILLLACISVDRYLAIVHATRTLTQKRYLVKFICLSIWGLSLLLALPVLLFRRTVYSSNVSPACYEDMGNNTANWRMLLRILPQSFGFIVPLLIMLFCYGFTLRTLFKAHMGQKHRAMRVIFAVVLIFLLCWLPYNLVLLADTLMRTQVIQETCERRNHIDRALDATEILGILHSCLNPLIYAFIGQKFRHGLLKILAIHGLISKDSLPKDSRPSFVGSSSGHTSTTL [CXCR2],–,266 ± 3.4
MSLFLSNLSTNDSSLWKENHNSTDLLNPPGTLNIYLFCLTCLMTFAALVGSIYSLISLLKMQNRTVVSMLVASWSVDDLMSVLSVTIFMFLQWPNEVPGYFQFLCTTSALMYLCQGLSSNLKATLLVSYNFYTMHRGVGSQTASRRSGQVLGVVLTVWAASLLLSALPLCGWGAFVRTPWGCLVDCSSSYVLFLSIVYALAFGLLVGLSVPLTHRLLCSEEPPRLHSNYQEISRGASIPGTPPTAGRVVSLSPEDAPGPSLRRSGGCSPSSDTVFGPGAPAAAGAEACRRENRGTLYGTRSFTVSVAQKRFALILALTKVVLWLPMMMHMVVQNVVGFQSLPLETFSFLLTLLATTVTPVFVLSKRWTHLPCGCIINCRQNAYAVASDGKKIKRKGFEFNLSFQKSYGIYKIAHEDYYDDDENSIFYHNLMNSECETTKDPQRDNRNIFNAIKVEISTTPSLDSSTQRGINKCTNTDITEAKQDSNNKKDAFSDKTGGDINYEETTFSEGPERRLSHEESQKPDLSDWEWCRSKSERTPRQRSGYALAIPLCAFQGTVSLHAPTGKTLSLSTYEVSAEGQKITPASKKIEVYRSKSVGHEPNSEDSSSTFVDTSVKIHLEVLEICDNEEALDTVSIISNISQSSTQVRSPSLRYSRKENRFVSCDLGETASYSLFLPTSNPDGDINISIPDTVEAHRQNSKRQHQERDGYQEEIQLLNKAYRKREEESKGS [GPR149],–,1060 ± 320
MSNITDPQMWDFDDLNFTGMPPADEDYSPCMLETETLNKYVVIIAYALVFLLSLLGNSLVMLVILYSRVGRSVTDVYLLNLALADLLFALTLPIWAASKVNGWIFGTFLCKVVSLLKEVNFYSGILLLACISVDRYLAIVHATRTLTQKRHLVKFVCLGCWGLSMNLSLPFFLFRQAYHPNNSSPVCYEVLGNDTAKWRMVLRILPHTFGFIVPLFVMLFCYGFTLRTLFKAHMGQKHRAMRVIFAVVLIFLLCWLPYNLVLLADTLMRTQVIQESCERRNNIGRALDATEILGFLHSCLNPIIYAFIGQNFRHGFLKILAMHGLVSKEFLARHRVTSYTSSSVNVSSNL [CXCR1],–,5900 ± 170
MRWLWPLAVSLAVILAVGLSRVSGGAPLHLGRHRAETQEQQSRSKRGTEDEEAKGVQQYVPEEWAEYPRPIHPAGLQPTKPLVATSPNPGKDGGTPDSGQELRGNLTGAPGQRLQIQNPLYPVTESSYSAYAIMLLALVVFAVGIVGNLSVMCIVWHSYYLKSAWNSILASLALWDFLVLFFCLPIVIFNEITKQRLLGDVSCRAVPFMEVSSLGVTTFSLCALGIDRFHVATSTLPKVRPIERCQSILAKLAVIWVGSMTLAVPELLLWQLAQEPAPTMGTLDSCIMKPSASLPESLYSLVMTYQNARMWWYFGCYFCLPILFTVTCQLVTWRVRGPPGRKSECRASKHEQCESQLNSTVVGLTVVYAFCTLPENVCNIVVAYLSTELTRQTLDLLGLINQFSTFFKGAITPVLLLCICRPLGQAFLDCCCCCCCEECGGASEASAANGSDNKLKTEVSSSIYFHKPRESPPLLPLGTPC [GPR37L1],–,148 ± 21
MDNITWMASHTGWSDFILMGLFRQSKHPMANITWMANHTGWSDFILLGLFRQSKHPALLCVVIFVVFLMALSGNAVLILLIHCDAHLHTPMYFFISQLSLMDMAYISVTVPKMLLDQVMGVNKISAPECGMQMFFYVTLAGSEFFLLATMAYDRYVAICHPLRYPVLMNHRVCLFLSSGCWFLGSVDGFTFTPITMTFPFRGSREIHHFFCEVPAVLNLSCSDTSLYEIFMYLCCVLMLLIPVVIISSSYLLILLTIHGMNSAEGRKKAFATCSSHLTVVILFYGAAIYTYMLPSSYHTPEKDMMVSVFYTILTPVVNPLIYSLRNKDVMGALKKMLTVEPAFQKAME [OR2T4],122 ± 21,–
